Changes are numbered by the printed parent chain. Names and notes keep the numbering of the source.
How the values were obtained:
[1] = target: T1, Human CD47-C33G (human, UniProt Q08722 19-135); experiment: SPR, IgG captured, CD47 in flow; exp 3;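 also: other target is a CD47 mutein carrying C33G, used to obtain true monovalent affinity, with kon and koff fitted from SPR binding curves and KD derived from both rates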
T1 construct: also called CD47 mutein with C33G mutation

[2] = target: T2, wild type human CD47 (Acro Biosystems, cat. no. CD7-H5227) (human, UniProt Q08722 19-139); experiment: SPR, IgG captured, CD47 in flow; exp 3;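 also: other target is a CD47 mutein carrying C33G, used to obtain true monovalent affinity, with kon and koff fitted from SPR binding curves and KD derived from both rates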
T2 construct: Bought protein used as SPR analyte; also called Human CD47 wt; wild-type CD47

[3] = target: T1, Human CD47-C33G; experiment: SPR, IgG captured, CD47 in flow; exp 2;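 also: rates derived from association and dissociation curves, KD estimated from them, C33G mutein used to avoid CD47 IgV homodimers for true monovalent affinity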
[4] = target: T2, wild type human CD47 (Acro Biosystems, …); experiment: SPR, IgG captured, CD47 in flow; exp 2;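 also: rates derived from association and dissociation curves, KD estimated from them, C33G mutein used to avoid CD47 IgV homodimers for true monovalent affinity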
[5] = target: T1, Human CD47-C33G; experiment: SPR, IgG captured, CD47 in flow; exp 1;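 also: biacore T200 SPR using IgG from supernatants of transfected HEK293 cells, rate constants fitted to association and dissociation curves, Kd derived from koff over kon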
[6] = target: T2, wild type human CD47 (Acro Biosystems, …); experiment: SPR, IgG captured, CD47 in flow; exp 1;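 also: biacore T200 SPR using IgG from supernatants of transfected HEK293 cells, rate constants fitted to association and dissociation curves, Kd derived from koff over kon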
[7] = target: T1, Human CD47-C33G; experiment: SPR, IgG captured, CD47 in flow; exp 4;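 also: biacore T200 SPR using IgG from transfected HEK293 supernatants against wild-type human CD47 or its C33G mutein, rates fitted to association and dissociation curves, KD estimated from them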
[8] = target: T2, wild type human CD47 (Acro Biosystems, …); experiment: SPR, IgG captured, CD47 in flow; exp 4;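 also: biacore T200 SPR using IgG from transfected HEK293 supernatants against wild-type human CD47 or its C33G mutein, rates fitted to association and dissociation curves, KD estimated from them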
[9] = target: T3, human CD47 on cells (SHP-77 tumor cells, human red blood cells, CCRF-CEM cells, human CD47 CHO-K1 stable cell … (human, UniProt Q08722 19-323)); experiment: flow cytometry on SHP-77 cells
T3 construct: whole, on cells; also called RBC

[10] = target: T3, human CD47 on cells (SHP-77 tumor …); experiment: flow cytometry on human RBCs;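 also: antibody binding measured by flow cytometry as geometric mean fluorescence intensity over a range of antibody concentrations, with EC50 and maximum taken from a sigmoidal dose-response fit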
[11] = target: T3, human CD47 on cells (SHP-77 tumor …); experiment: cell-based or functional assay

B1: 108VH10.Mg / 108VL10.Me (antibody, V domains shown)
VH: EVQLVESGGGLVQPGGSLRLSCAASGFTFSHHWIHWVRQAPGKGLEWVAMIDASDSETRLSQKFKDRFTISADTSKNTAYLQMNSLRAEDTAVYYCSRLGRYYFDYWGQGTLVTVSS
VL: DIQMTQSPSSLSASVGDRVTITCRASQSISSYLNWYQQKPGKAPKLLIYGASSRYSGVPSRFSGSRSGTDFTLTISSLQPEDFATYYCGESYGHLYTFGQGTKVEIK
notes: 4D5-framework series; constant regions not restated for this series; also called VH10.Mg VL10.Me
With B1 the Kd [1] was 31 nM, the koff [1] was 0.0072 s⁻¹ and the kon [1] was 230000 M⁻¹ s⁻¹. The Kd [2] was 4.8 nM, the koff [2] was 0.0032 s⁻¹ and the kon [2] was 680000 M⁻¹ s⁻¹.

B2: 108VH10.Md / 108VL10.M1 (antibody, V domains shown)
VH: B1 VH with F27Y, T28S, S30T, D52K, A53P
VL: B1 VL with Q27E, S28N, I29V, S30G, S31T, L33I, N34S, S53N, S56T
notes: 4D5-framework series; constant regions not restated for this series; Asp52 replaced with Lys; also called VH10.Md VL10.M1
B2: no binding (tested: 2.5 nM to 1.28 µM of antigen tested) [3].

B3: 108VH10.Mb / 108VL10.M1 (antibody, V domains shown)
VH: B1 VH with F27Y, T28S, S30T, I34M, A53P
VL: B1 VL with Q27E, S28N, I29V, S30G, S31T, L33I, N34S, S53N, S56T
notes: 4D5-framework series; constant regions not restated for this series; also called VH10.Mb VL10.M1
In the case of B3, the Kd [3] is reported as 39 nM, the koff [3] is reported as 0.0035 s⁻¹ and the kon [3] is reported as 89000 M⁻¹ s⁻¹. It also gave a Kd [4] of 6.5 nM, a koff [4] of 0.0016 s⁻¹ and a kon [4] of 240000 M⁻¹ s⁻¹.

B4: 108VH10.Me / 108VL10.M1 (antibody, V domains shown)
VH: B1 VH with F27Y, T28S, S30T, A53Q
VL: B1 VL with Q27E, S28N, I29V, S30G, S31T, L33I, N34S, S53N, S56T
notes: 4D5-framework series; constant regions not restated for this series; Pro53 replaced with Gln; also called VH10.Me VL10.M1
Binder B4 has a Kd [4] of 53 nM, a koff [4] of 0.0027 s⁻¹ and a kon [4] of 52000 M⁻¹ s⁻¹.

B5: 108VH10.Ml / 108VL10.Me (antibody, V domains shown)
VH: B1 VH with D66G
VL: B1 VL
notes: 4D5-framework series; constant regions not restated for this series; also called VH10.Ml VL10.Me
Binder B5 has a Kd [1] of 36 nM, a koff [1] of 0.0073 s⁻¹ and a kon [1] of 200000 M⁻¹ s⁻¹. It also gave a Kd [2] of 5.6 nM, a koff [2] of 0.0034 s⁻¹ and a kon [2] of 610000 M⁻¹ s⁻¹.

B6: 108VH10.Mi / 108VL10.Me (antibody, V domains shown)
VH: B1 VH with Q62D
VL: B1 VL
notes: 4D5-framework series; constant regions not restated for this series; also called VH10.Mi VL10.Me
B6 was tested, and the Kd [1] was 38 nM, the koff [1] was 0.0087 s⁻¹ and the kon [1] was 230000 M⁻¹ s⁻¹. It also gave a Kd [2] of 5.2 nM, a koff [2] of 0.0034 s⁻¹ and a kon [2] of 640000 M⁻¹ s⁻¹.

B7: 108VH10 / 108VL10.Mc (antibody, V domains shown)
VH: B1 VH with F27Y, T28S, S30T, A53P
VL: B1 VL with Q27E, S28N, I29V, S30G, S31T, L33I, N34S, S56T
notes: 4D5-framework series; constant regions not restated for this series; also called VH10 VL10.Mc
Binder B7 has a Kd [3] of 64 nM, a koff [3] of 0.0044 s⁻¹ and a kon [3] of 69000 M⁻¹ s⁻¹. For the same binder, the Kd [4] was 10 nM, the koff [4] was 0.002 s⁻¹ and the kon [4] was 190000 M⁻¹ s⁻¹.

B8: 108VH10.Mh / 108VL10.Me (antibody, V domains shown)
VH: B1 VH with S61V
VL: B1 VL
notes: 4D5-framework series; constant regions not restated for this series; also called VH10.Mh VL10.Me
With B8 the Kd [1] was 160 nM, the koff [1] was 0.013 s⁻¹ and the kon [1] was 79000 M⁻¹ s⁻¹. The Kd [2] was 17 nM, the koff [2] was 0.0066 s⁻¹ and the kon [2] was 380000 M⁻¹ s⁻¹.

B9: 108VH10.Ma / 108VL10.M1 (antibody, V domains shown)
VH: B1 VH with A53P
VL: B1 VL with Q27E, S28N, I29V, S30G, S31T, L33I, N34S, S53N, S56T
notes: 4D5-framework series; constant regions not restated for this series; also called VH10.Ma VL10.M1
B9 showed a Kd [3] of 57 nM, a koff [3] of 0.0046 s⁻¹ and a kon [3] of 82000 M⁻¹ s⁻¹. For the same binder, the Kd [4] was 8.7 nM, the koff [4] was 0.002 s⁻¹ and the kon [4] was 230000 M⁻¹ s⁻¹.

B10: 108VH10 / 108VL10.Ma (antibody, V domains shown)
VH: B1 VH with F27Y, T28S, S30T, A53P
VL: B1 VL with S53N, S56T
notes: 4D5-framework series; constant regions not restated for this series; also called VH10 VL10.Ma
For B10, the Kd [3] was 8 nM, the koff [3] was 0.0029 s⁻¹ and the kon [3] was 360000 M⁻¹ s⁻¹. It also gave a Kd [4] of 1.4 nM, a koff [4] of 0.0015 s⁻¹ and a kon [4] of 1e+06 M⁻¹ s⁻¹.

B11: 108VH10 / 108VL10.Md (antibody, V domains shown)
VH: B1 VH with F27Y, T28S, S30T, A53P
VL: B1 VL with Q27E, S28N, I29V, S30G, S31T, L33I, N34S, S53N
notes: 4D5-framework series; constant regions not restated for this series; also called VH10 VL10.Md
With B11 the Kd [3] was 42 nM, the koff [3] was 0.0036 s⁻¹ and the kon [3] was 86000 M⁻¹ s⁻¹. The Kd [4] was 7.1 nM, the koff [4] was 0.0016 s⁻¹ and the kon [4] was 230000 M⁻¹ s⁻¹.

B12: 108VH10.Mj / 108VL10.Me (antibody, V domains shown)
VH: B1 VH with K63S
VL: B1 VL
notes: 4D5-framework series; constant regions not restated for this series; also called VH10.Mj VL10.Me
Work on B12 yielded a Kd [1] of 38 nM, a koff [1] of 0.0078 s⁻¹ and a kon [1] of 210000 M⁻¹ s⁻¹. The Kd [2] was 5.8 nM, the koff [2] was 0.0035 s⁻¹ and the kon [2] was 610000 M⁻¹ s⁻¹.

B13: 108VH5.M5 / 108VL1.M5 (antibody, human IgG4 S228P, kappa, V domains shown)
VH: EVQLVQSGAEVKKPGASVKVSCKASGYTFTHHWIHWVRQAPGQGLEWMGMIDASDSETRLSQKFKDRVTMTRDTSTSTVYMELSSLRSEDTAVYYCARLGRYYFDYWGQGTLVTVSS
VL: EIVLTQSPATLSLSPGERATLSCRASQSVSSYLAWYQQKPGQAPRLLIYGASNRATGIPARFSGSGSGTDFTLTISSLEPEDFAVYYCGESYGHLYTFGGGTKVEIKR
notes: Full-length IgG4 (S228P), kappa; also called VH5.M5 VL1.M5
B13 gave a Kd [5] of 6.2 nM, a koff [5] of 0.0021 s⁻¹ and a kon [5] of 330000 M⁻¹ s⁻¹. The Kd [6] was 1.3 nM, the koff [6] was 0.00096 s⁻¹ and the kon [6] was 720000 M⁻¹ s⁻¹.

B14: 108VH5.M20 / 108VL1.M5 (antibody, human IgG4 S228P, kappa, V domains shown)
VH: B13 VH with I34M, S56A, L60Y, S61A, K65Q, D66G
VL: B13 VL
notes: Full-length IgG4 (S228P), kappa; also called VH5.M20 VL1.M5
Binder B14 has a Kd [7] of 15 nM, a koff [7] of 0.0045 s⁻¹ and a kon [7] of 310000 M⁻¹ s⁻¹. For the same binder, the Kd [8] was 3 nM, the koff [8] was 0.0022 s⁻¹ and the kon [8] was 710000 M⁻¹ s⁻¹.

B15: 108VH5.M8 / 108VL1.M5 (antibody, human IgG4 S228P, kappa, V domains shown)
VH: B13 VH with T28S, L60Y, S61A
VL: B13 VL
notes: Full-length IgG4 (S228P), kappa; also called VH5.M8 VL1.M5
B15 showed a Kd [5] of 15 nM, a koff [5] of 0.0044 s⁻¹ and a kon [5] of 300000 M⁻¹ s⁻¹. It also gave a Kd [6] of 3 nM, a koff [6] of 0.0022 s⁻¹ and a kon [6] of 720000 M⁻¹ s⁻¹.

B16: 108VH5.M9 / 108VL1.M5 (antibody, human IgG4 S228P, kappa, V domains shown)
VH: B13 VH with T28S, K65Q, D66G
VL: B13 VL
notes: Full-length IgG4 (S228P), kappa; also called VH5.M9 VL1.M5
Binder B16 has a Kd [5] of 8.5 nM, a koff [5] of 0.0028 s⁻¹ and a kon [5] of 330000 M⁻¹ s⁻¹. For the same binder, the Kd [6] was 1.9 nM, the koff [6] was 0.0014 s⁻¹ and the kon [6] was 760000 M⁻¹ s⁻¹.

B17: 108VH5.M25 / 108VL1.M5 (antibody, human IgG4 S228P, kappa, V domains shown)
VH: B13 VH with I34M, S56R, L60Y, S61A, K65Q, D66G
VL: B13 VL
notes: Full-length IgG4 (S228P), kappa; also called VH5.M25 VL1.M5
For B17, the EC50 [9] was 7.1 nM, the “Fitted Maximal MFI” value [9] was 39600 MFI and the Kd [7] was 33 nM. It also gave a koff [7] of 0.0063 s⁻¹, a kon [7] of 190000 M⁻¹ s⁻¹ and a Kd [8] of 6.2 nM. For the same binder, the koff [8] was 0.0028 s⁻¹, the kon [8] was 450000 M⁻¹ s⁻¹ and the EC50 [10] was 4 nM. The “Fitted Maximal MFI” value [10] was 35500 MFI.

B18: 108VH5.M24 / 108VL1.M5 (antibody, human IgG4 S228P, kappa, V domains shown)
VH: B13 VH with I34M, S56L, L60Y, S61A, K65Q, D66G
VL: B13 VL
notes: Full-length IgG4 (S228P), kappa; also called VH5.M24 VL1.M5
With B18 the EC50 [9] was 9.8 nM, the “Fitted Maximal MFI” value [9] was 38700 MFI and the Kd [7] was 31 nM. It also gave a koff [7] of 0.0067 s⁻¹, a kon [7] of 220000 M⁻¹ s⁻¹ and a Kd [8] of 5.7 nM. The koff [8] was 0.003 s⁻¹, the kon [8] was 520000 M⁻¹ s⁻¹ and the EC50 [10] was 4 nM. The “Fitted Maximal MFI” value [10] was 29200 MFI.

B19: 108VH5.M26 / 108VL1.M5 (antibody, human IgG4 S228P, kappa, V domains shown)
VH: B13 VH with I34M, S56V, L60Y, S61A, K65Q, D66G
VL: B13 VL
notes: Full-length IgG4 (S228P), kappa; also called VH5.M26 VL1.M5
In the case of B19, the Kd [7] is reported as 23 nM, the koff [7] is reported as 0.0054 s⁻¹ and the kon [7] is reported as 240000 M⁻¹ s⁻¹. The Kd [8] was 4.6 nM, the koff [8] was 0.0026 s⁻¹ and the kon [8] was 570000 M⁻¹ s⁻¹.

B20: 108VH5.M21 / 108VL1.M5 (antibody, human IgG4 S228P, kappa, V domains shown)
VH: B13 VH with I34M, S56F, L60Y, S61A, K65Q, D66G
VL: B13 VL
notes: Full-length IgG4 (S228P), kappa; also called VH5.M21 VL1.M5
In the case of B20, the EC50 [9] is reported as 11.9 nM, the “Fitted Maximal MFI” value [9] is reported as 37400 MFI and the Kd [7] is reported as 51 nM. It also gave a koff [7] of 0.008 s⁻¹, a kon [7] of 160000 M⁻¹ s⁻¹ and a Kd [8] of 6.5 nM. For the same binder, the koff [8] was 0.0032 s⁻¹, the kon [8] was 490000 M⁻¹ s⁻¹ and the “CCRF-CEM phagocytosis EC50” value [11] was 0.32 nM. The “CCRF-CEM phagocytosis, Phagocytosis (%)” value [11] was 51.9%, the EC50 [10] was 9.2 nM and the “Fitted Maximal MFI” value [10] was 40800 MFI.
